# Biological target: Spike protein of SARS-CoV-2 (isolate USA-WA1/2020) (SARS-CoV-2) (UniProt P0DTC2)
# Test: cell-based or functional assay
substance,measurement,value
S309 (antibody),"neutralization EC50 (viability of Vero E6 cells by CellTiter-Glo, 72 h after infection)",0.858 µg/mL
